This note sets out measurements from patent US20240166768A1 (YEDA RESEARCH AND DEVELOPMENT, published 2024).

The chains are these.
B1: T28 (antibody, V domains shown)
VH: QVQLQESGPGLVKPSETLSLSCAVSGGSIRGYSWSWIRQPPGKGLEWIADMLYTGTTTFNPSLKSRVTISVDTSKNQFSLKLTSVTAADTAVYYCARGPTVSGPIVVDYWGPGTLVTVSS
VL: NFMLTQPHSVSESPGKTVTISCTGSSGSIASNYVQWYQQRPGSAPTTLIYEDKQRPSGVPDRFSGSIDSSTNSASLTISGLKTEDEADYYCQSFDSSNRWVFGGGTKVTVL
B2: T15 (antibody, human IgG1, V domains shown)
VH: EVQLVESGGGLVQPGGSLRLSCAASGFTFNNYWMTWVRQAPGKGLEWVANVNQDGNEKNYVDSVRGRFTISRDNAKNSLHLQMKSLISDDTAVYYCARVGGGDYYDSSGYYWFDTWGQGALVTVSS
VL: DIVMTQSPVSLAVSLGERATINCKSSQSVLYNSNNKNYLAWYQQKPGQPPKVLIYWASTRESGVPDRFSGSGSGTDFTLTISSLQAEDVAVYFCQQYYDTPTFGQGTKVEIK
B3: T21 (antibody, V domains shown)
VH: QVQLQESGPGLVKPSQTLSLTCTVSGGSFSNSNYYWSWIRQPAGKGLEWIGHIYASAITHYNPSLKSRVTISKDTSKNQFSLNLRSVTAADTAVYFCARGFRLAAEAYYHGMDVWGQGTTVTVSS
VL: DIQMTQSPSSLSASVGDRVTITCRASQSINNFLNWYQQKPGKAPKLLIYGASSLQSGVPSRFSASGSGTDFSLTISGLIPEDFAIYYCQQSDTTPWTFGQGTKVDIK
B4: T2 (antibody, V domains shown)
VH: QVQLVQSGAEVKKPGASVNVSCKASGYNFKAYGVGWVRQAPGQGLEWMGWITPYNGKTNYAQKIQGRVTMTTDTSTTTAYMELRSLQPDDTAMYFCARTPAALASFDYWSQGTLVTVSS
VL: DIQMTQSPSTLSASVGDRVTITCRASQSISSWLAWYQQKAGKAPKLLIFDASTLQSGVPSRFSGSGSGTEFSLTISSLQPDDFATYYCQQYYSYSTFGQGTKVEIR
B5: T26 (antibody, V domains shown)
VH: QVQLVQSGSEVKKPGASVKVSCKASGYTFTSNGISWVRQAPGQGLEWMGWISAYNGNTNYAQKFQGRVSLTTDTSTSTAYMELRNLTSDDTARYYCARSRGHYGDYLYGYWGQGTLVTVSS
VL: QSVLTQPPSVSGAPGQRVTISCTGSSSNIGAGYDVHWYQQLPGTAPKLLIHGNSNRPSGVPDRFSGSKSGTSASLAITGLQAEDEADYYCQSFDSSLSGSVVFGGGTKLTVL
B6: T22 (antibody, V domains shown)
VH: QVQLVQSGAEVKKPGSSVKVACKASGGTFSRSAISWVRQAPGQGLEWMGGIIRIFNTADYAQKFQGRVTMSADESTSTAYMELSSLRSEDTAVYYCATSSLSDIVVAEGAFVDHYFGMDVWGQGTTVTVSS
VL: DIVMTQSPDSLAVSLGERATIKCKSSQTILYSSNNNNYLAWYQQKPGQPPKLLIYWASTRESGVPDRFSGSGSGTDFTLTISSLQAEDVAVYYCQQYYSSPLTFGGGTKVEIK
B7: T5 (antibody, V domains shown)
VH: QVQLVESGGGVVQPGRSLRLSCAASGFTFSSHAMHWVRQAPGKGLQWVALISYDGYNKYYAESVQGRFTLSRDNSKNTLYLQMNSLRAEDTAVYYCARDRDSSGYIFDYWGQGTLVTVSS
VL: DIQMTQSPSSLSASVGDRVTITCQASQDISNYLNWYQQKPGKAPKVLIYDASNLERGVPSRFSGSGSGTAFTFTISSLQPEDIATYYCQQYDNLPSFGGGTKVEIK
B8: T25 (antibody, V domains shown)
VH: EVQLVESGGGLVKPGGSLRLSCAPSGFIFSNTWMSWVRQAPGKGLEWVGHIKSKADGGTTDYAAPVKGRFTISRDDSRNTLYLQMDSLKTEDTGVYYCTTGWYSTLDYWGQGTLVTVSS
VL: QSVLTQPPSASGTPGQRVTISCSGSTSNVGTNYVYWCQQFPGAAPKLLMYRNDRRPSGVPDRFSGSKSGTSASLAISGLRSEDEADYYCAAWDDSLSSWVFGGGTKLTVL
B9: T1 (antibody, V domains shown)
VH: EVQLVESGGGLEQPGRSLRLSCAASGFSFGDNAMTWFRQAPGKGLEWVGIIRAKGYGGTTEYAASVKGRFTISRDDSKSIAFLQMNNVKVEDTGVYYCAKYASGWEVGFDPWGQGTLVTVSS
VL: AIQMTQSPSSLSASVGDRVTITCRASQFIRNDLGWYQQKPGRAPKLLIYAASGLHSGVPARFSGNGSATDFTLTITSLQPEDFATYYCLQDYNFPWTFGQGTKVEIK
B10: T20 (antibody, V domains shown)
VH: QVQLQESGPGLLKPSQTLSLTCTVSGAFLNSGGYYWTWIRQHPGKGLEWIGYIYYSGTTYYNPSLKSRVTISVDTSKNQFSLNVNSVIAADTAVYYCARAPRIPFGEVIGGAAFDVWGQGTTVIVSS
VL: EIVLTQSPGTLSLSPGERATLSCRASQSVTSNFVGWYQQKPGQAPRLLIYAASSRPTGIPERFSGSGSGTDFTLTISRLEPEDFAVYYCEQYGSSPRTFGPGTKVEIK
B11: T24 (antibody, V domains shown)
VH: QLQLQESGSGLVKPSQTLSLTCAVSGGSISSSDYSWSWIRQPPGKGLEWIGYIYHSGNTYYNPSVKSRVTISLDSSKNHFSLTLTSVTAADTAIYYCARDPGGNSGWFDPWGQGALVTVSS
VL: SYELTQPTSVSVSPGQTARITCSGDALPSQYAYWYQQKPGQAPILIIYKDNKRPSGIPERFSGSSSGTRVTLTISGVQPEDEADYYCQSADRSGRYVFGTGTRVPVL
B12: T4 (antibody, V domains shown)
VH: QVQLVQSGGEVKKPGASAKVSCKTSGFTFTSYGISWVRQAPGQGLEWMGWINTYNGNTKYAQRLQGRVSMTTDTSTNTAYMELRSLRSDDTAVYYCARGQGRYGDYIYNHWGQGTLVIVSS
VL: DIQMTQSPSTLSASVGDRVTITCRASQIISSWVAWYQQRPGKAPKLLIFDASILESGVPSRFSGSATGTEFSLTISGLQPDDFATYYCQHYNDFPLSFGGGTKVEIK
B13: T19 (antibody, V domains shown)
VH: EVQLLESGGGLVQPGGSLRLSCAASGFTFDNYGMSWVRQAPGKGLEWVSVISSGGVGTYYADSVKGRFIISRDNAKNTLYLQMNSLRAEDTAVYYCAKDLLRYESSGYSPWGQGTLVTVSS
VL: EIVLTQSPATLSLSPGDRATLSCRASQSVNTYLAWYQHKPGQAPRLLIYDASKRATGIPARFSGSGSGTDFTLTISSLEPEDFAVYYCQQRANRPPLTFGGGTKVEIK
B14: T14 (antibody, human IgG1, V domains shown)
VH: EVQLVESGGGLVQPGGSLRLSCAVSGFTFNNYWMTWVRQAPGKGLEWVANIKGDGSEKTYVDSVKGRFTVSRDNANNSLHLQMKSLRAEDTAVYYCARVGGGDYYDSSGYYWLDTWGQGTLVTVSS
VL: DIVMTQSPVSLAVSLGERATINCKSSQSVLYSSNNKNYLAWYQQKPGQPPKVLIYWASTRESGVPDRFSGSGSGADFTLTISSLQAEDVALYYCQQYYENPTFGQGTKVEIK
B15: T6 (antibody, V domains shown)
VH: QVQLQQSGPGLVKPSQTLSLTCAISGDSVSSNSAAWNWIRQSPSRGLEWLGRTYYRSRWYSDYAFSVRSRIIVKADTSRNLFSLQLNSMTPEDTAIYYCARDLGIAAADWFDSWGQGTLVTVSS
VL: EIVMTQSPATLSVSPGDRATLSCRASQSVSNRLAWYQQKPGQAPRLLIYDASTRATDIPARFSGSGSGTEFTLTISSLQSEDFAIYFCHQYHNWPGFGPGTKLEIK
B16: T17 (antibody, V domains shown)
VH: EVQLVESGGGLVQPGGSLTLSCTASGFTYFGFAMTWVRQPPGKGLEWISSINLLSGTTYYVDSVKGRFTISRDNSKNTVFLQMKGLTAEDTAVYYCAKVGATQDLHYFDFWGQGTLVTVSS
VL: DIQMTQSPSTLSASVGDRVTITCRASQSVYRWLAWYQQKPGEAPKLLVYGAFSLQSGVPPRFSGSGYGTEFTLTISSLQPDDFATYYCQQYNSHSTFGQGTKVEVK
B17: T29 (antibody, V domains shown)
VH: QLQLQESGPGLVKPSETLSLTCTVSGGSISSSSYYWGWIRQPPGKGLEWIGSLSYTGSTYYNPSLKSRVTISLDTSKNQFSLKLSSVTAADTAVYYCARESGSGGTHTDSWGQGTLVSVSS
VL: QSVLTQPPSVSAAPGQKVTISCSGSSSNIGNNYVSWYQQLPGTAPKLLIYDNNKRPSGIPDRFSGSKSGTSATLGISGLQTGDEADYYCGTWDSSLSAWVFGGGTKLTVL
B18: T18 (antibody, V domains shown)
VH: EVQLVESGGGLVQPGGSLRLSCAASGFTFSSYWMTWVRQAPGKGLEWVANIKPDGSEKNYVDSVKGRFTISRDNAENSLYLQMNSLRAEDTAVFYCARDLRYCSSTSCSPALDYWGQGTLLTVSS
VL: DIQMTQSPSSLSASVGDRVTITCRASQSIASYLNWYQQKPGRAPKLLIYAASTSGVPSRFSGSGSGTDFTLTISSLQPEDFATYYCQQSYTTPRTFGQGTKVEIK
B19: T13 (antibody, V domains shown)
VH: EVQLVESGGGLVQPGGSLRLSCAASGFIFSKHDMYWVRQRPGKGLEWVSRIGDAGDTYYAGSVKGRFTIFRENAKNTLYFQMNRLTDGDTAVYYCGRGMAVAGFPLDVWGRGTRVTVTS
VL: EIVMTQSPATLSVSPGERATLSCRASQNIHINLAWYQQKPGQAPRLIIYAASTRAAGIPARFSASGSGTEFTLTISSLQSEDFAVYYCQQFNPWSPWTFGQGTKVEVK
notes: The digit 1 is dropped in many places of the text; also called mAb T13

Chain of BSA (P02769 25-607 limits assumed): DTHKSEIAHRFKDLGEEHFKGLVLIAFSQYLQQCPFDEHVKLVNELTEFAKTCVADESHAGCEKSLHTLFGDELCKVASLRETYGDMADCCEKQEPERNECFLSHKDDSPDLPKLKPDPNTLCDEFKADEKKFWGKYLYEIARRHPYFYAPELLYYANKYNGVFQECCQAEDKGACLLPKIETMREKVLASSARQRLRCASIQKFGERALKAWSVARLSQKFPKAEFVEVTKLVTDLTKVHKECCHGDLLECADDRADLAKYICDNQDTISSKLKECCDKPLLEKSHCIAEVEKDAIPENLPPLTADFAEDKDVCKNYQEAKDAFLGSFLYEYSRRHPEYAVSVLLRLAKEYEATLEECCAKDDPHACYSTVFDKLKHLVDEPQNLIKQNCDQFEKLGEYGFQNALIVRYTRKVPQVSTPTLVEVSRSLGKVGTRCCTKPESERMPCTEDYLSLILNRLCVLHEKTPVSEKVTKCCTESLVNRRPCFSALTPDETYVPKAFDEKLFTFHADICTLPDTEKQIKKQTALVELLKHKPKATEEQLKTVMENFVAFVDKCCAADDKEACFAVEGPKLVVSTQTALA

The first test has as its target BSA (bovine, UniProt P02769). The test can be described thus: ELISA heatmap, OD630. The protocol:
ELISA reactions were carried out using flat-bottom MaxiSorp™ 96-well plates (Invitrogen). Antigen coating was performed in PBS at 1001 per well and left overnight at 4° C. For standard dose response ELISA assays, antigens were plated at a concentration of 1 μg/ml. For comparative ELISA assays with multiple antigen targets, antigens were plated at a constant molar concentration of 50 nM. The plates were washed 5 times with washing buffer (1×PBS with 0.05% Tween-20 (Sigma-Aldrich)) and incubated with 1001 blocking buffer (1×PBS with 1% BSA) for 1 h at room temperature. The blocking solution was subsequently replaced by serial dilutions of either mono- or polyclonal antibodies or serum samples for 2.5 h at RT. For standard dose response ELISA assays, antibodies were introduced over a range of dilutions whereas for ELISA screens, antibodies were introduced at 100 nM. Serum samples were assayed at a dilution of 1:100. Plates were washed 5 times with washing buffer and then incubated with anti-human IgG secondary antibody conjugated to horseradish peroxidase (HRP) (Jackson Immuno Research) in PBS at a 1:5,000 dilution. After washing the plates for additional 5 times, the plates were developed using TMB (Thermo Fisher) and absorbance was measured at 630 nm with an ELISA microplate reader (Synergy HTX plate reader, Biotek).
Strikingly, in 3/4 patients, monoclonal antibodies that bound MMP14 with various degrees of effectiveness and specificity were detected, confirming the analysis using polyclonal patient-derived antibodies. In order to further examine the specificity of the monoclonal antibodies, the binding activity of the antibodies was tested in different dilutions by ELISA.
(In an ELISA, binding on a coated surface is turned into a signal by an enzyme label.)
Turning to B1, the binding result is reported as “no binding (tested: 100 nM)”.

For B2, the binding result is listed as “no binding (tested: 100 nM)”.

On to B3, for which the binding result is reported as “no binding (tested: 100 nM)”.

For B4, the binding result is recorded as “no binding (tested: 100 nM)”.

On to B5, for which the binding result was “no binding (tested: 100 nM)”.

Take B6: the binding result was “no binding (tested: 100 nM)”.

With B7, the binding result is given as “no binding (tested: 100 nM)”.

As for B8, the binding result is listed as “no binding (tested: 100 nM)”.

As for B9, the binding result is reported as “no binding (tested: 100 nM)”.

Take B10: the binding result is “no binding (tested: 100 nM)”.

Take B11: the binding result is reported as “no binding (tested: 100 nM)”.

Turning to B12, the binding result is “no binding (tested: 100 nM)”.

Regarding B13, the binding result is given as “no binding (tested: 100 nM)”.

For the molecule B14, the binding result was “no binding (tested: 100 nM)”.

With B15, the binding result is recorded as “no binding (tested: 100 nM)”.

For B16, the binding result is “no binding (tested: 100 nM)”.

For the molecule B17, the binding result is listed as “no binding (tested: 100 nM)”.

B18: the binding result was “no binding (tested: 100 nM)”.

A further test concerns the target T1, ROI-1 peptide of MMP14 (I-A loop).
T1 construct: also called 'ROI-peptide'; 'Peptide (ROI)'
The test can be described thus: peptide validation ELISA: antibody plated, biotinylated peptide titrated, streptavidin-HRP; the concentration is that of the peptide.
Take B19: the EC50 (read off the curve) (usually the concentration needed to bring the measured effect to its halfway point) was approximately 2 µg/mL.
